Measured values: patent US20140072613A1, “Compositions and Methods for Treating Cutaneous Scarring” (priority 2012, published 2014)

Experiments:
Assay in all cases: biochemical
Assay type in all cases: biochemical
266 human kinases [1] = biological target: 266 human kinases (Homo sapiens, UniProt P22607); details: FGFR3(h); 100 μM
Summary of the method: (§1)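 Steps: kinase transfers radiolabelled phosphate from ATP onto a positively charged substrate; the substrate is trapped on a negatively charged filter; bound radioactivity is counted by scintillation and compared with uninhibited (100%) activity.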

266 human kinases [2] = biological target: 266 human kinases (Homo sapiens, UniProt Q9P286); details: PAK5(h); 100 μM
266 human kinases (Homo sapiens, UniProt Q9P286), sequence (Q9P286 whole entry): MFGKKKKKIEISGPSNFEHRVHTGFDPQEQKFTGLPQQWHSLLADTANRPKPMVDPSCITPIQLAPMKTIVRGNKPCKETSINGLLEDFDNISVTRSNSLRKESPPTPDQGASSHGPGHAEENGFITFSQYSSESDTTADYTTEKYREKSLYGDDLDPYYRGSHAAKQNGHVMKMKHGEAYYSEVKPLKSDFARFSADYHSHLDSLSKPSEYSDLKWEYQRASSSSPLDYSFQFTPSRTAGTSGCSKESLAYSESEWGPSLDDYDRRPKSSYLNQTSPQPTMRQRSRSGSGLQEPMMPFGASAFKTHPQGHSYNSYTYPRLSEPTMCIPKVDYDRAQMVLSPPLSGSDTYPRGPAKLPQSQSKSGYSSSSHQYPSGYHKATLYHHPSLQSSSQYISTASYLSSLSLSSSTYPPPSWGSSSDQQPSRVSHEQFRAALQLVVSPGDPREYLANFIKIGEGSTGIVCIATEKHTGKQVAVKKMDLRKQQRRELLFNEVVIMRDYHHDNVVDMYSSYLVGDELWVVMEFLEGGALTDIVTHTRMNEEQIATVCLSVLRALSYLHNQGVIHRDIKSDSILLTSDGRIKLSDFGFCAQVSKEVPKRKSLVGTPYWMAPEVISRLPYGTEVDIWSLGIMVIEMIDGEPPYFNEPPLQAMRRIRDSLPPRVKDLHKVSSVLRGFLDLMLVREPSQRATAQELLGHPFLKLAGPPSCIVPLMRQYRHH
Summary of the method: as §1

266 human kinases [3] = biological target: 266 human kinases (Homo sapiens, UniProt P31749); details: PKBα(h); 100 μM
266 human kinases (Homo sapiens, UniProt P31749), sequence (P31749 whole entry): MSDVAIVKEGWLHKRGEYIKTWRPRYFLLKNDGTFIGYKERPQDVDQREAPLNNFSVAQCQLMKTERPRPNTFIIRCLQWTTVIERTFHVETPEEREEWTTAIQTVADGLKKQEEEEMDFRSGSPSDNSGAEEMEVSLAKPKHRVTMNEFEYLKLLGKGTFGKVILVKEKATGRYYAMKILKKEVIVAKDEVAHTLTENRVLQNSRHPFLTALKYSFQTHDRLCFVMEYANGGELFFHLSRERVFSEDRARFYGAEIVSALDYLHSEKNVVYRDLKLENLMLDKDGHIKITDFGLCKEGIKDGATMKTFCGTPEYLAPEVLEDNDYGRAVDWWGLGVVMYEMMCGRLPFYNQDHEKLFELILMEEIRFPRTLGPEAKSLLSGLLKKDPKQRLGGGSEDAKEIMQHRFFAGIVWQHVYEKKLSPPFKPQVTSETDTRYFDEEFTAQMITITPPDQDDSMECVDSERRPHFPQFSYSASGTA
Summary of the method: as §1

266 human kinases [4] = biological target: 266 human kinases (Homo sapiens, UniProt Q96RG2); details: PASK(h); 100 μM
266 human kinases (Homo sapiens, UniProt Q96RG2), sequence (Q96RG2 whole entry): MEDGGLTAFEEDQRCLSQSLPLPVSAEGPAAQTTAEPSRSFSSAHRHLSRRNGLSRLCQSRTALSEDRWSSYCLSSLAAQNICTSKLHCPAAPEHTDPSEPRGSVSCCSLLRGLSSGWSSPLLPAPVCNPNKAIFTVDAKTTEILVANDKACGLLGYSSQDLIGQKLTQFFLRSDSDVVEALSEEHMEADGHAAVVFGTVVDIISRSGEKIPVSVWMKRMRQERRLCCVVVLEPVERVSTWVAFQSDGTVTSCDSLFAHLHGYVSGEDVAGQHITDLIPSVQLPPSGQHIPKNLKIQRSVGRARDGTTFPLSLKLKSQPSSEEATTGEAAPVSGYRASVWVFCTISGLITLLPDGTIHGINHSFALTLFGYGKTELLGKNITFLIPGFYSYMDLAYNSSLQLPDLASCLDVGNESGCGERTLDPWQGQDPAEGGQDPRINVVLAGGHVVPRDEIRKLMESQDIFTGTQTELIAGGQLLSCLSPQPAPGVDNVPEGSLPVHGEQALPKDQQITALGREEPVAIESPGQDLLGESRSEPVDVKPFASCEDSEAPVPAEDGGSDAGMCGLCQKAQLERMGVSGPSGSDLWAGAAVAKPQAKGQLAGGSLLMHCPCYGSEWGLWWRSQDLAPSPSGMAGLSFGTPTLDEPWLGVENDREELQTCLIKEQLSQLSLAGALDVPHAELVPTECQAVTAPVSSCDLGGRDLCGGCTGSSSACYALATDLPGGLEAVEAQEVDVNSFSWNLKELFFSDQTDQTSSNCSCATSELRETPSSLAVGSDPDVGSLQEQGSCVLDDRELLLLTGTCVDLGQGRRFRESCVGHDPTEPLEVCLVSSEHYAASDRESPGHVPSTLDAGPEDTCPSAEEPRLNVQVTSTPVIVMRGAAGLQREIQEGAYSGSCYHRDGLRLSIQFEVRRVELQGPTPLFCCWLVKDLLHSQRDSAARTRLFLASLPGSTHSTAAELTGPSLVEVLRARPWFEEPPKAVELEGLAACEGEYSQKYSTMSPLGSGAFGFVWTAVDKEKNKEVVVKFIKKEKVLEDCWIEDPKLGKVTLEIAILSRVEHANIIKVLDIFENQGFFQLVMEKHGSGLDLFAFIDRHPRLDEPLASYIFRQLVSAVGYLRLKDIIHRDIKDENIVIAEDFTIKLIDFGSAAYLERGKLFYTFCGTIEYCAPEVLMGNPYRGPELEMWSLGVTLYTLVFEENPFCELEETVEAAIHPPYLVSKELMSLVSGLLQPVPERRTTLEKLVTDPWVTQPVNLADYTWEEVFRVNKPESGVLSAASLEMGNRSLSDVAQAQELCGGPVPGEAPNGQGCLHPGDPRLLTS
Summary of the method: as §1

266 human kinases [5] = biological target: 266 human kinases (Homo sapiens, UniProt Q86UE8); details: TLK2(h); 100 μM
266 human kinases (Homo sapiens, UniProt Q86UE8), sequence (Q86UE8 whole entry): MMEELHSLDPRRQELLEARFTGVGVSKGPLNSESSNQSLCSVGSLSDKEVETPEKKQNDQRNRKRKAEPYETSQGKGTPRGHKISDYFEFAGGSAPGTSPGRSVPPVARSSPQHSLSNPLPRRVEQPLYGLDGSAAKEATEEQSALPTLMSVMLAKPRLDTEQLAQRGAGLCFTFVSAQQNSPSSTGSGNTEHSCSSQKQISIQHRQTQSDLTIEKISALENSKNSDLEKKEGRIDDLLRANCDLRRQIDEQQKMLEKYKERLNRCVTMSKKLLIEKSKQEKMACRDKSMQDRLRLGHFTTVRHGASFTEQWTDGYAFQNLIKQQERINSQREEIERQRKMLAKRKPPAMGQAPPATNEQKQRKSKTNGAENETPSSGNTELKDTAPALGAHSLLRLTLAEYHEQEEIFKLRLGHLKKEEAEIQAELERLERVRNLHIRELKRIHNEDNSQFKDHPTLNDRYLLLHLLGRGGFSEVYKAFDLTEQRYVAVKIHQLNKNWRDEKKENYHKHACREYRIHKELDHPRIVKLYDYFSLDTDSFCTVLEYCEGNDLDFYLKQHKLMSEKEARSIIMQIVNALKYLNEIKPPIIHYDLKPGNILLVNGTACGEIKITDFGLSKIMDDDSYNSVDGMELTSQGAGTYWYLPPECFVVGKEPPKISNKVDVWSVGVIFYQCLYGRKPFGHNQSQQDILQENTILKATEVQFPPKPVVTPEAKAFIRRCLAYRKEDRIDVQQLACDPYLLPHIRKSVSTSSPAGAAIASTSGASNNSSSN
Summary of the method: as §1

266 human kinases [6] = biological target: 266 human kinases (Homo sapiens, UniProt P36888); details: Flt3(h); 100 μM
Summary of the method: as §1

266 human kinases [7] = biological target: T1, 266 human kinases (Homo sapiens, UniProt Q05513); details: PKCζ(h); 100 μM
T1 sequence (Q05513 1-592): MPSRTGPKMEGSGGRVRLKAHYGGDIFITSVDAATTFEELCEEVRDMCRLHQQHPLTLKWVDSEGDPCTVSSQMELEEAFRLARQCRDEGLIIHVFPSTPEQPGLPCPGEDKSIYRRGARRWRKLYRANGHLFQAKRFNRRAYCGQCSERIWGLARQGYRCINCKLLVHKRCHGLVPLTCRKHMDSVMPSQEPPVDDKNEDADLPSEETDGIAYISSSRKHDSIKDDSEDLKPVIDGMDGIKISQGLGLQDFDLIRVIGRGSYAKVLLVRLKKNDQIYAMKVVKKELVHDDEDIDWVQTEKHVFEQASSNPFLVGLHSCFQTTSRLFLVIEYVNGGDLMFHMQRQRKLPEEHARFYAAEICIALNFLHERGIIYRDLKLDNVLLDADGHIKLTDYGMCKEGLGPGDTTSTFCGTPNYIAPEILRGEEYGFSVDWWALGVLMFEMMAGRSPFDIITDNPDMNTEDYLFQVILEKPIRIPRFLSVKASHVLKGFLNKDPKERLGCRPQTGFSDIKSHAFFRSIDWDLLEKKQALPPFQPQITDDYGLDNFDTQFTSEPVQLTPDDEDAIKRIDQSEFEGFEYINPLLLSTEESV
Summary of the method: as §1

266 human kinases [8] = biological target: 266 human kinases (Homo sapiens, UniProt P17252); details: PKCα(h); 100 μM
Summary of the method: as §1

266 human kinases [9] = biological target: 266 human kinases (Homo sapiens, UniProt P08581, Y1230D); details: Met(Y1248D)(h); 100 μM
Summary of the method: as §1

266 human kinases [10] = biological target: T2, 266 human kinases (Homo sapiens, UniProt P54760); details: EphB4(h); 100 μM
T2 sequence (P54760 16-987): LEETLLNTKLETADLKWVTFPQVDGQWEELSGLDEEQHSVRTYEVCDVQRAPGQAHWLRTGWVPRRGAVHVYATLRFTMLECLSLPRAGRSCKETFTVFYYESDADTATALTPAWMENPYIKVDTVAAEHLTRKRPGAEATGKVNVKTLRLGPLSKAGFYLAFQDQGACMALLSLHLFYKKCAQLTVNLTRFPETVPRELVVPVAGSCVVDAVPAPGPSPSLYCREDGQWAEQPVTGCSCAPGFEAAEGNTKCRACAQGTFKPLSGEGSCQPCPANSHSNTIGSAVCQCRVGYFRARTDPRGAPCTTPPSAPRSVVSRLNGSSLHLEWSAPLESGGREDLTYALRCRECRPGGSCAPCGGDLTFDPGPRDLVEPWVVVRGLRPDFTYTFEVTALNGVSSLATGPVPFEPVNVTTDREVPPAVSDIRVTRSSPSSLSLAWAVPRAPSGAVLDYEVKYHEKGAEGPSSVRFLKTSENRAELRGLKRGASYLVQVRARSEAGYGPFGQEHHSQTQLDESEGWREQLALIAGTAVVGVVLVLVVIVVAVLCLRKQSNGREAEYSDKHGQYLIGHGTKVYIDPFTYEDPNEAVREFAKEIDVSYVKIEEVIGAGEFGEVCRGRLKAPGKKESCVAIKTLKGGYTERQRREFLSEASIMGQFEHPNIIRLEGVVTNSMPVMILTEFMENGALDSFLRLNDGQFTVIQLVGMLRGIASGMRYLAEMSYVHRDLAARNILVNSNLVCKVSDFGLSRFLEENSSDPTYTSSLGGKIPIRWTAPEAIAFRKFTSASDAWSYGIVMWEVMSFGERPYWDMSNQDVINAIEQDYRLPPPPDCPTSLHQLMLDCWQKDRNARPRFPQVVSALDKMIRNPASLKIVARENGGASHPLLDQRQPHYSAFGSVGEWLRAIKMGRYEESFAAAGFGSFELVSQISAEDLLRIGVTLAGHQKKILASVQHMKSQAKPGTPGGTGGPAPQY
Summary of the method: as §1

266 human kinases [11] = biological target: T3, 266 human kinases (Homo sapiens, UniProt Q15831); details: LKB1(h); 100 μM
T3 sequence (Q15831 1-433): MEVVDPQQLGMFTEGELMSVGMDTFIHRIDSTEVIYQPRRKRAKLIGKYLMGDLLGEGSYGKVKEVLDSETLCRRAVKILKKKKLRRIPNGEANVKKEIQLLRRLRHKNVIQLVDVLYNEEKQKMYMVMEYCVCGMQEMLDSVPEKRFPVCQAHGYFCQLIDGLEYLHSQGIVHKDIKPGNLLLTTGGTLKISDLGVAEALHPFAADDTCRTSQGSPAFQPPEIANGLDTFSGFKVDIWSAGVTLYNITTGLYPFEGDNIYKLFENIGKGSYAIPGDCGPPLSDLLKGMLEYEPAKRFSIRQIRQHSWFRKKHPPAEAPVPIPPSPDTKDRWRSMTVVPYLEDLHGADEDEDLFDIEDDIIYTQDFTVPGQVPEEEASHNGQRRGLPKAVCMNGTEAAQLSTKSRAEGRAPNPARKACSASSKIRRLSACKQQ
Summary of the method: as §1

266 human kinases (Homo sapiens, UniProt P22607), sequence (P22607 23-806): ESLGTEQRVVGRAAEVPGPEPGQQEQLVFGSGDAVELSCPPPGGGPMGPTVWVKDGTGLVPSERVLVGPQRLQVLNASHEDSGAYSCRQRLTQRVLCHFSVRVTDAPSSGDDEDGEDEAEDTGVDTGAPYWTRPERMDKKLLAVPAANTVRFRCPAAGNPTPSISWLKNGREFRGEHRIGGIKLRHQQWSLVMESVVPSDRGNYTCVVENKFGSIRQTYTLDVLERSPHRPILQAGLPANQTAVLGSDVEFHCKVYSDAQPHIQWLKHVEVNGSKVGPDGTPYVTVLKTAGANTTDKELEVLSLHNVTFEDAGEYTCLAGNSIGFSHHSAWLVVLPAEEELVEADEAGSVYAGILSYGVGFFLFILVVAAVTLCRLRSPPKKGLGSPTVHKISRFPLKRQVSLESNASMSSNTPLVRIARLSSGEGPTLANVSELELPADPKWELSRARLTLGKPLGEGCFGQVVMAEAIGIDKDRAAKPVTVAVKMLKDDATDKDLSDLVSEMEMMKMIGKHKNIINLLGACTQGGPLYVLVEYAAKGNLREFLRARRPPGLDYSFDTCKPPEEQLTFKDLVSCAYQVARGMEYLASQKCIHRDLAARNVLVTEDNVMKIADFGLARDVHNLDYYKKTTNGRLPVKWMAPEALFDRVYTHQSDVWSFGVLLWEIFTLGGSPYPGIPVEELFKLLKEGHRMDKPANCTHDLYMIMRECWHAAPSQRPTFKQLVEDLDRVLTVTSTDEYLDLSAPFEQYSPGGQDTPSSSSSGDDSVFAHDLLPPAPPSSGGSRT

| Sequence | % activity (266 human kinases [1]) [%] | % activity (266 human kinases [2]) [%] | % activity (266 human kinases [3]) [%] | % activity (266 human kinases [4]) [%] | % activity (266 human kinases [5]) [%] | % activity (266 human kinases [6]) [%] | % activity (266 human kinases [7]) [%] | % activity (266 human kinases [8]) [%] | % activity (266 human kinases [9]) [%] | % activity (266 human kinases [10]) [%] | % activity (266 human kinases [11]) [%] |
| --- | --- | --- | --- | --- | --- | --- | --- | --- | --- | --- | --- |
| HRRIKAWLKKIKALARQLGVAA (mammal) [MMI-0500] | 10 | 125 | 30 | 9 | 133 | 17 | 7 | 3 | 218 | 38 | 51 |
| YARAAARQARAKALNRQLGVA (mammal) [MMI-0200] | 208 | 100 | 110 | 60 | 129 | 99 | 98 | 100 | 118 | 131 | 99 |
